The text below walks through data of patent publication US20220089722A1.

For the test, the target named is CD3 on T cells (Jurkat T cells; PBMC-T cells). Nature of the test: flow cytometry on Jurkat T cells; protein purified on CH1 resin.
CD3 on T cells (Jurkat T cells; PBMC-T cells), sequence (P07766 23-207): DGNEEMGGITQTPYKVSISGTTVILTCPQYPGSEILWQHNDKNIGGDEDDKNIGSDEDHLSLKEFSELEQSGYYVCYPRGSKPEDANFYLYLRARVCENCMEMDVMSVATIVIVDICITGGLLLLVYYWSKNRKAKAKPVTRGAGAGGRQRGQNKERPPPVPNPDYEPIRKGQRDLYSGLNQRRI

B1: IgFD-36(anti-CD3) (antibody, human IgG1, kappa, V domains shown)
VH: EVQLVESGGGLVQPGGSLRLSCAASGFTFNTYAMNWVRQAPGKGLEWVARIRSKYNNYATYYADSVKDRFTISRDDSKNTLYLQMNSLRAEDTAVYYCVRHGNFGNSYVSWFAYWGQGTLVTVSS
VL: QAVVTQEPSLTVSPGGTVTLTCRSSTGAVTTSNYANWVQQKPDHLFRGLIGGTNKRAPGTPARFSGSLLGDKAALTISGAQPEDEAEYYCALWYSNLWVFGGGTKLTVLK
What is called Kd is the constant that tells how readily two partners part at equilibrium. A high value points to weaker binding. The molecule B1 gave a Kd of 6.12 nM.
